Reference: patent publication US20250236653A1 (published 2025)
Where a chain is given by its changes, count along the chain named. Read-outs that look alike come from different tables or passages of the source.

T1: human OX40 (human, UniProt P43489 29-277)
T1 chain: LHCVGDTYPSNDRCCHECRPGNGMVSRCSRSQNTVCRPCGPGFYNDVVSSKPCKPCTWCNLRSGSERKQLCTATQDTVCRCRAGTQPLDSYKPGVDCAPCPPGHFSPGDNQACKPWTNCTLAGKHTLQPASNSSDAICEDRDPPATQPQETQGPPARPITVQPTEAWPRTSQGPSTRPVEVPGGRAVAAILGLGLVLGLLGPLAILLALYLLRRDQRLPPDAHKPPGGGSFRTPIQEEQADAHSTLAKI

T2: cynomolgus monkey OX40 (cynomolgus monkey)
T2 chain: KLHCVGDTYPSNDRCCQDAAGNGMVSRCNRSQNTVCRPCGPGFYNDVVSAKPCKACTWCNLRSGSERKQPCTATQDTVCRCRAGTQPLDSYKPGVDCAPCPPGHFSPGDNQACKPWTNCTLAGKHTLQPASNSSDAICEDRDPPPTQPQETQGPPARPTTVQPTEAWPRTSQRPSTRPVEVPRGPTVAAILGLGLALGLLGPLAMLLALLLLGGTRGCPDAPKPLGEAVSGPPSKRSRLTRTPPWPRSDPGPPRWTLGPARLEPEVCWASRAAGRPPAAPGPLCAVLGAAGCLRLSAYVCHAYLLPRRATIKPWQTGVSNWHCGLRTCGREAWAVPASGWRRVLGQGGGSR

B1: mono-mut23-20E5 (Fc fusion)
chain: IWELKKDVYVVELDWYPDAPGEMVVLTCDTPEEDGITWTLDQSSEVLGSGKTLTIQVKEFGDAGQYTCHKGGEVLSHSLLLLHKKEDGIWSTDILKDQKEPKNKTFLRCEAKNYSGRFTCWWLTTISTDLTFSVKSSRGSSDPQGVTCGAATLSAERVRGDNKEYEYSVECQEDSACPAAEESLPIEVMVDAVHKLKYENYTSSFFIRDIIKPDPPKNLQLKPLKNSRQVEVSWEYPDTWSTPHSYFSLTFSVQVQGKSKREKKDRVFTDKTSATVICRKNASISVRAQDRYYSSSWSEWASVPCSGGGGSGGGGSGGGGSGGGGSGGGGSRNLPVATPDPGMFPCLHHSQNLLRAVSNMLQKARQTLEFSPCTSEEIDHEDITKDKTSTVEACLPLELTKNESCLNSRETSFITNGSCLASRKTSFMMALCLSSIYEDLKMYQVEFKTMNAKLLMDPKRQIFLDQNMLAVIDELMQALNFNSETVPQKSSLEEPDFYKTAIKLCILLHAFRIRAVTIDRVMSYLNASGGGGSGGGGSEPKSSDKTHTCPPCPAPEFEGGPSVFLFPPKPKDTLMISRTPEVTCVVVDVSHEDPEVKFNWYVDGVEVHNAKTKPREEQYNSTYRVVSVLTVLHQDWLNGKEYKCKVSNKALPASIEKTISKAKGQPREPQVCTLPPSRDELTKNQVSLSCAVKGFYPSDIAVEWESNGQPENNYKTTPPVLDSDGSFFLVSKLTVDKSRWQQGNVFSCSVMHEALHNHYTQKSLSLSPG
heavy: QVQLVQSGAEVKKPGASVKVSCKASGYTFTSYVMHWVRQAPGQRLEWIGYINPYNDGTKYNEKFKGRATLTSDKSASTAYMELSSLRSEDTAVYYCANYYGSSLSMDYWGQGTLVTVSSASTKGPSVFPLAPSSKSTSGGTAALGCLVKDYFPEPVTVSWNSGALTSGVHTFPAVLQSSGLYSLSSVVTVPSSSLGTQTYICNVNHKPSNTKVDKKVEPKSCDKTHTCPPCPAPEFEGGPSVFLFPPKPKDTLMISRTPEVTCVVVDVSHEDPEVKFNWYVDGVEVHNAKTKPREEQYNSTYRVVSVLTVLHQDWLNGKEYKCKVSNKALPASIEKTISKAKGQPREPQVYTLPPCRDELTKNQVSLWCLVKGFYPSDIAVEWESNGQPENNYKTTPPVLDSDGSFFLYSKLTVDKSRWQQGNVFSCSVMHEALHNHYTQKSLSLSPG
light: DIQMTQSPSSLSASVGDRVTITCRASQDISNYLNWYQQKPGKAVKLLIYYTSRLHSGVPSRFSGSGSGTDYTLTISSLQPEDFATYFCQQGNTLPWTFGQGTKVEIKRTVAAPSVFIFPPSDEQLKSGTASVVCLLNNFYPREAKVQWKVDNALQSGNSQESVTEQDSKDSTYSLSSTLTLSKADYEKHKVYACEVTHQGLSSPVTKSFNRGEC
B2: mono-mut23-12H3 (Fc fusion)
chain: B1 chain
heavy: QVQLVQSGAEVKKPGSSVKVSCKASGYTFKDYTMHWVRQAPGQGLEWIGGIYPNNGGSTYNQNFKDRVTLTADKSTSTAYMELSSLRSEDTAVYYCARMGYHGPHLDFDVWGQGTTVTVSSASTKGPSVFPLAPSSKSTSGGTAALGCLVKDYFPEPVTVSWNSGALTSGVHTFPAVLQSSGLYSLSSVVTVPSSSLGTQTYICNVNHKPSNTKVDKKVEPKSCDKTHTCPPCPAPEFEGGPSVFLFPPKPKDTLMISRTPEVTCVVVDVSHEDPEVKFNWYVDGVEVHNAKTKPREEQYNSTYRVVSVLTVLHQDWLNGKEYKCKVSNKALPASIEKTISKAKGQPREPQVYTLPPCRDELTKNQVSLWCLVKGFYPSDIAVEWESNGQPENNYKTTPPVLDSDGSFFLYSKLTVDKSRWQQGNVFSCSVMHEALHNHYTQKSLSLSPG
light: DIQMTQSPSSLSASVGDRVTITCKASQDVGAAVAWYQQKPGKAPKLLIYWASTRHTGVPSRFSGSGSGTDFTLTISSLQPEDFATYYCQQYINYPLTFGGGTKVEIKRTVAAPSVFIFPPSDEQLKSGTASVVCLLNNFYPREAKVQWKVDNALQSGNSQESVTEQDSKDSTYSLSSTLTLSKADYEKHKVYACEVTHQGLSSPVTKSFNRGEC
B3: mono-mut23-12H3_V4 (Fc fusion)
chain: B1 chain
heavy: B2 heavy with N55A
light: B2 light
B4: mono-mut23-12H3_V8 (Fc fusion)
chain: B1 chain
heavy: B2 heavy with N55Q, M99I
light: B2 light
B5: mono-mut23-20E5_V5 (Fc fusion)
chain: B1 chain
heavy: B1 heavy with D56A
light: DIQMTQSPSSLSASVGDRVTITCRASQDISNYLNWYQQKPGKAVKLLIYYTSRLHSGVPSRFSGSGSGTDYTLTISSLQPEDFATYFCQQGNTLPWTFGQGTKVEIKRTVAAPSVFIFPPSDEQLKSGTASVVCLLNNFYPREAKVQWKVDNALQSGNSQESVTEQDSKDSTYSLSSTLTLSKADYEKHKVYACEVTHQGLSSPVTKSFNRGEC
B6: mono-mut23-20E5_V4 (Fc fusion)
chain: B1 chain
heavy: B1 heavy with D56E
light: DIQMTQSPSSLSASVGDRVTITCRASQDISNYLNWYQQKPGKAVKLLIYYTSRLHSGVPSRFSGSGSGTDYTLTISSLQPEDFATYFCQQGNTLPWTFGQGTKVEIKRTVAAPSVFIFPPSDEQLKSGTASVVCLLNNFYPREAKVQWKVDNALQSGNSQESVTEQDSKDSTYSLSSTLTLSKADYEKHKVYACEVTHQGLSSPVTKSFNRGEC
B7: mono-mut23-12H3_V3 (Fc fusion)
chain: B1 chain
heavy: B2 heavy with N55Q
light: B2 light
B8: mono-mut23-20E5_V6 (Fc fusion)
chain: B1 chain
heavy: B1 heavy with G57A
light: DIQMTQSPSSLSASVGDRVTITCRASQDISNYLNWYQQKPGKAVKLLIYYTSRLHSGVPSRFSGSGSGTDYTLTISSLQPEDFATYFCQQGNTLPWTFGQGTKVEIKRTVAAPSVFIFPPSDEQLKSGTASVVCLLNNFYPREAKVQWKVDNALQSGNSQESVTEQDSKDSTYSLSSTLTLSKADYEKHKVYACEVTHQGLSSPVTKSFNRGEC

Experiments:
Assay in all cases: flow cytometry
human OX40 [1] = molecular target: T1, human OX40
cynomolgus monkey OX40 = molecular target: T2, cynomolgus monkey OX40
human OX40 [2] = molecular target: T1, human OX40
human OX40 [3] = molecular target: T1, human OX40

Row | Binder | EC50 (human OX40 [2]) [nM] | EC50 (human OX40 [3]) [nM] | other results
1 | B1 | 92.6 | – | EC50 (human OX40 [1]): 59.2 nM; EC50 (cynomolgus monkey OX40): 111 nM
2 | B2 | – | – | EC50 (human OX40 [1]): 15.6 nM; EC50 (cynomolgus monkey OX40): 19.2 nM
3 | B3 | – | 1880 | –
4 | B4 | – | 1910 | –
5 | B5 | 73 | – | –
6 | B6 | 69.2 | – | –
7 | B7 | – | 839 | –
8 | B8 | 538 | – | –
